Holding throughout (assay): EMSA
Data set [1] relates to LARP1 665-947 cluster 6 partial phosphomimetic (5 sites) (Homo sapiens). Particulars: tRNA and BSA competitors; m7Gppp cap; EMSA: 20 mM Tris-HCl pH 8, 150 mM NaCl, 10% glycerol, 1 mM DTT, 0.5 ug tRNA, 1 ug BSA in 10 ul; on ice 30 min; 7-8% native 0.5x TBE gel at 4 C; RNA <=200 pM. In general terms: Mobility shift assays separate free from complexed probe on a gel.
Data set [2] concerns LARP1 796-1019 cluster 7 phosphomimetic (Homo sapiens). Particulars: tRNA and BSA competitors; enhanced relative to WT 796-1019; m7Gppp cap; EMSA: 20 mM Tris-HCl pH 8, 150 mM NaCl, 10% glycerol, 1 mM DTT, 0.5 ug tRNA, 1 ug BSA in 10 ul; on ice 30 min; 7-8% native 0.5x TBE gel at 4 C; RNA <=200 pM.
The test system of data set [3] is LARP1 665-947 cluster 6 full phosphomimetic (10 sites) (Homo sapiens). The following applies: tRNA and BSA competitors; stated 4.99-fold reduction; m7Gppp cap; EMSA: 20 mM Tris-HCl pH 8, 150 mM NaCl, 10% glycerol, 1 mM DTT, 0.5 ug tRNA, 1 ug BSA in …; on ice 30 min; 7-8% native 0.5x TBE gel at 4 C; RNA <=200 pM.

As a reminder, the Kd is the constant that tells how readily two partners part at equilibrium. For the substance m7G-RPS6-UTR (capped RPS6 20-mer), the Kd in data set [1] is 902 nM; in data set [2], 44 nM; in data set [3], 2840 nM.

Source of the values: PMC8034618.
